Protein stability index data for 94 variants are collected here from the supplement of paper PMC10567573.

B1: CLINT1 (parent)
chain: VVTSAREHIYDLRSLENYHFVDEH
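Further: lentivirally expressed fusions sorted by FACS into six bins by GFP to DsRed ratio, PSI derived from sequencing read proportions per bin multiplied by bin number.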

In the data set the parent is B1. Kind of data set: protein stability index of a GFP-peptide fusion (GPS, HEK-293T) (PSI 1-6); higher = more stable. The following applies: c terminus: a fixed tail appended.
For the variant VVTSAREHIYDLRILENYHFVDEH, the protein stability index stood at 2.15.
As for VVTSAREHIYDLRLLENYHFVDEH, the protein stability index worked out at 2.72.
As for VVTSAREHIYDLRHLENYHFVDEH, the figure is 2.25.
The figure for VVTSAREHIYDLRALENYHFVDEH is 3.52; for VVTSAREHIYDLRTLENYHFVDEH it is 2.63.
As for VVTSAREHIYDLRGLENYHFVDEH, the figure is 3.45; as for VVTSAREHIYDLRPLENYHFVDEH, 2.24; as for VVTSAREHIYDLRKLENYHFVDEH, 2.69.
As to VVTSAREHIYDLRYLENYHFVDEH, the protein stability index came out at 2.02.
The figure for VVTSAREHIYDLRRLENYHFVDEH is 2.44.
The figure for VVTSAREHIYDLRELENYHFVDEH is 2.87; for VVTSAREHIYDLRCLENYHFVDEH it is 2.24.
Consider VVTSAREHIYDLRVLENYHFVDEH, for which the protein stability index was found to be 2.11.
As for VVTSAREHIYDLRDLENYHFVDEH, the figure is 3.24; as for VVTSAREHIYDLRMLENYHFVDEH, 2.49; as for VVTSAREHIYDLRWLENYHFVDEH, 2.2.
Turning to VVTSAREHIYDLRNLENYHFVDEH, the protein stability index turned out to be 3.07.
As for VVTSAREHIYDLRFLENYHFVDEH, the figure is 2.57; as for VVTSAREHIYDLRQLENYHFVDEH, 2.31; as for VVTSAREHIYDLRSLEYYHFVDEH, 1.97.
The figure for VVTSAREHIYDLRSLECYHFVDEH is 2.35; for VVTSAREHIYDLRSLESYHFVDEH it is 2.18; for VVTSAREHIYDLRSLEVYHFVDEH it is 2.14.
As for VVTSAREHIYDLRSLEQYHFVDEH, the figure is 2.15; as for VVTSAREHIYDLRSLERYHFVDEH, 2.95.
In the case of VVTSAREHIYDLRSLEKYHFVDEH, the protein stability index is 2.63.
The figure for VVTSAREHIYDLRSLELYHFVDEH is 2.09.
As for VVTSAREHIYDLRSLEDYHFVDEH, the figure is 3.52; as for VVTSAREHIYDLRSLEMYHFVDEH, 2.35; as for VVTSAREHIYDLRSLETYHFVDEH, 2.67.
Regarding VVTSAREHIYDLRSLEPYHFVDEH, the protein stability index came out at 3.32.
The figure for VVTSAREHIYDLRSLEAYHFVDEH is 2.95; for VVTSAREHIYDLRSLEEYHFVDEH it is 2.96; for VVTSAREHIYDLRSLEWYHFVDEH it is 1.96.
The figure for VVTSAREHIYDLRSLEIYHFVDEH is 1.83; for VVTSAREHIYDLRSLEFYHFVDEH it is 1.86; for VVTSAREHIYDLRSLEGYHFVDEH it is 2.81.
As for VVTSAREHIYDLRSLEHYHFVDEH, the protein stability index turned out to be 2.45.
The figure for VVTSAREHCYDLRSLENYHFVDEH is 2.83; for VVTSAREHWYDLRSLENYHFVDEH it is 2.21; for VVTSAREHDYDLRSLENYHFVDEH it is 3.54.
As for VVTSAREHQYDLRSLENYHFVDEH, the figure is 4.09; as for VVTSAREHYYDLRSLENYHFVDEH, 2.15; as for VVTSAREHGYDLRSLENYHFVDEH, 3.83.
VVTSAREHPYDLRSLENYHFVDEH: the protein stability index stood at 3.59.
The figure for VVTSAREHFYDLRSLENYHFVDEH is 2.61.
Take VVTSAREHVYDLRSLENYHFVDEH: the protein stability index was determined as 3.16.
As for VVTSAREHHYDLRSLENYHFVDEH, the figure is 3.24.
As for VVTSAREHKYDLRSLENYHFVDEH, the figure is 3.48; as for VVTSAREHSYDLRSLENYHFVDEH, 4.07; as for VVTSAREHRYDLRSLENYHFVDEH, 3.66.
As for VVTSAREHTYDLRSLENYHFVDEH, the figure is 3.31; as for VVTSAREHNYDLRSLENYHFVDEH, 4.5.
VVTSAREHLYDLRSLENYHFVDEH: the protein stability index worked out at 2.83.
As for VVTSAREHMYDLRSLENYHFVDEH, the figure is 3.06.
The figure for VVTSAREHEYDLRSLENYHFVDEH is 3.62; for VVTSAREHIVDLRSLENYHFVDEH it is 2.67.
The figure for VVTSAREHIMDLRSLENYHFVDEH is 3.01; for VVTSAREHILDLRSLENYHFVDEH it is 2.71.
For the variant VVTSAREHIADLRSLENYHFVDEH, the protein stability index came out at 3.84.
As for VVTSAREHINDLRSLENYHFVDEH, the figure is 3.71; as for VVTSAREHITDLRSLENYHFVDEH, 3.8; as for VVTSAREHIPDLRSLENYHFVDEH, 4.21.
As for VVTSAREHIQDLRSLENYHFVDEH, the figure is 3.75; as for VVTSAREHIEDLRSLENYHFVDEH, 4.17; as for VVTSAREHICDLRSLENYHFVDEH, 3.66.
The figure for VVTSAREHIHDLRSLENYHFVDEH is 2.9; for VVTSAREHIKDLRSLENYHFVDEH it is 3.64; for VVTSAREHIIDLRSLENYHFVDEH it is 2.32.
Consider VVTSAREHIDDLRSLENYHFVDEH, for which the protein stability index came out at 3.94.
On to VVTSAREHIWDLRSLENYHFVDEH, for which the protein stability index stood at 2.06.
Regarding VVTSAREHIGDLRSLENYHFVDEH, the protein stability index is 3.91.
As for VVTSAREHISDLRSLENYHFVDEH, the protein stability index turned out to be 3.37.
For the variant VVTSAREHIRDLRSLENYHFVDEH, the protein stability index turned out to be 3.78.
As for VVTSAREHIFDLRSLENYHFVDEH, the figure is 2.42; as for VVTSAREHIYDDRSLENYHFVDEH, 4.08.
For the variant VVTSAREHIYDWRSLENYHFVDEH, the protein stability index worked out at 2.7.
As for VVTSAREHIYDFRSLENYHFVDEH, the figure is 2.61; as for VVTSAREHIYDNRSLENYHFVDEH, 3.78; as for VVTSAREHIYDARSLENYHFVDEH, 3.42.
The figure for VVTSAREHIYDVRSLENYHFVDEH is 2.7.
Regarding VVTSAREHIYDTRSLENYHFVDEH, the protein stability index was determined as 3.99.
For the variant VVTSAREHIYDMRSLENYHFVDEH, the protein stability index came to 3.39.
The figure for VVTSAREHIYDGRSLENYHFVDEH is 3.78.
As for VVTSAREHIYDERSLENYHFVDEH, the figure is 4.03.
Turning to VVTSAREHIYDPRSLENYHFVDEH, the protein stability index came out at 3.21.
For VVTSAREHIYDSRSLENYHFVDEH, the protein stability index was 3.13.
The figure for VVTSAREHIYDKRSLENYHFVDEH is 3.78; for VVTSAREHIYDCRSLENYHFVDEH it is 2.61.
The figure for VVTSAREHIYDIRSLENYHFVDEH is 2.89; for VVTSAREHIYDHRSLENYHFVDEH it is 3.32; for VVTSAREHIYDQRSLENYHFVDEH it is 4.09.
As for VVTSAREHIYDRRSLENYHFVDEH, the figure is 3.6; as for VVTSAREHIYDYRSLENYHFVDEH, 2.4.
